Values quoted from earlier work in patent publication US10190113B2, “Methods and compositions for segregating target nucleic acid from mixed nucleic acid samples” (FLIR DETECTION, INC., priority 2011, dated 2019).
Residue numbers refer to the chain shown, from its start. Names may count otherwise. “And” between values parts separate entries of the source, which are not always exact repeats. Equal values may be shown once.

B1: BsoBI I95M: BsoBI restriction enzyme with mutation I95M (protein, UniProt P70985 2-323, looked up, variant I95M)
Type II restriction enzyme …: NTQKPFENHLKSVDDLKTTYEEYRAGFIAFALEKNKRSTPYIERARALKVAASVAKTPKDLLYLEDIQDALLYASGISDKAKKFLTEDDKKESMNNLIENFLEPAGEEFIDELIFRYLLFQGDSLGGTMRNIAGALAQQKLTRAIISALDIANIPYKWLDSRDKKYTNWMDKPEDDYELETFAKGISWTINGKHRTLMYNITVPLVKKNVDICLFNCEPEIYTPQKVHQQPEKYLLLGELKGGIDPAGADEHWKTANTALTRIRNKFSEKGLSPKTIFIGAAIEHSMAEEIWDQLQSGSLTNSANLTKTEQVGSLCRWIINI
B2: BsoBI D212N: BsoBI restriction enzyme with mutation D212N (protein, UniProt P70985 2-323, looked up, variant D212N)
Type II restriction enzyme …: B1 Type II restriction enzyme … with M94I, D211N
B3: BsoBI K209R: BsoBI restriction enzyme with mutation K209R (protein, UniProt P70985 2-323, looked up, variant K209R)
Type II restriction enzyme …: B1 Type II restriction enzyme … with M94I, K208R
B4: BsoBI G123R: BsoBI restriction enzyme with mutation G123R (protein, UniProt P70985 2-323, looked up, variant G123R)
Type II restriction enzyme …: B1 Type II restriction enzyme … with M94I, G122R
B5: BsoBI D124Y: BsoBI restriction enzyme with mutation D124Y (protein, UniProt P70985 2-323, looked up, variant D124Y)
Type II restriction enzyme …: B1 Type II restriction enzyme … with M94I, D123Y
B6: EcoRV Y72N: EcoRV restriction enzyme with mutation Y72N (protein, UniProt P04390 2-245, looked up, variant Y72N)
Type II restriction enzyme …: SLRSDLINALYDENQKYDVCGIISAEGKIYPLGSDTKVLSTIFELFSRPIINKIAEKHGYIVEEPKQQNHNPDFTLYKPSEPNKKIAIDIKTTYTNKENEKIKFTLGGYTSFIRNNTKNIVYPFDQYIAHWIIGYVYTRVATRKSSLKTYNINELNEIPKPYKGVKVFLQDKWVIAGDLAGSGNTTNIGSIHAHYKDFVEGKGIFDSEDEFLDYWRNYERTSQLRNDKYNNISEYRNWIYRGRK
B7: EcoRV E45Q: EcoRV restriction enzyme with mutation E45Q (protein, UniProt P04390 2-245, looked up, variant E45Q)
Type II restriction enzyme …: B6 Type II restriction enzyme … with E44Q, N71Y
B8: EcoRV D74E: EcoRV restriction enzyme with mutation D74E (protein, UniProt P04390 2-245, looked up, variant D74E)
Type II restriction enzyme …: B6 Type II restriction enzyme … with N71Y, D73E
B9: EcoRV P73T: EcoRV restriction enzyme with mutation P73T (protein, UniProt P04390 2-245, looked up, variant P73T)
Type II restriction enzyme …: B6 Type II restriction enzyme … with N71Y, P72T
B10: EcoRV D90T: EcoRV restriction enzyme with mutation D90T (protein, UniProt P04390 2-245, looked up, variant D90T)
Type II restriction enzyme …: B6 Type II restriction enzyme … with N71Y, D89T
B11: EcoRV K92A: EcoRV restriction enzyme with mutation K92A (protein, UniProt P04390 2-245, looked up, variant K92A)
Type II restriction enzyme …: B6 Type II restriction enzyme … with N71Y, K91A
B12: EcoRV I91L: EcoRV restriction enzyme with mutation I91L (protein, UniProt P04390 2-245, looked up, variant I91L)
Type II restriction enzyme …: B6 Type II restriction enzyme … with N71Y, I90L
B13: EcoRV K92R: EcoRV restriction enzyme with mutation K92R (protein, UniProt P04390 2-245, looked up, variant K92R)
Type II restriction enzyme …: B6 Type II restriction enzyme … with N71Y, K91R
B14: EcoRV P73A: EcoRV restriction enzyme with mutation P73A (two citations) (protein, UniProt P04390 2-245, looked up, variant P73A)
Type II restriction enzyme …: B6 Type II restriction enzyme … with N71Y, P72A
B15: EcoRV E45D: EcoRV restriction enzyme with mutation E45D (protein, UniProt P04390 2-245, looked up, variant E45D)
Type II restriction enzyme …: B6 Type II restriction enzyme … with E44D, N71Y
B16: EcoRV D90N: EcoRV restriction enzyme with mutation D90N (two citations) (protein, UniProt P04390 2-245, looked up, variant D90N)
Type II restriction enzyme …: B6 Type II restriction enzyme … with N71Y, D89N
B17: EcoRV D74N: EcoRV restriction enzyme with mutation D74N (protein, UniProt P04390 2-245, looked up, variant D74N)
Type II restriction enzyme …: B6 Type II restriction enzyme … with N71Y, D73N
B18: EcoRV E45A: EcoRV restriction enzyme with mutation E45A (protein, UniProt P04390 2-245, looked up, variant E45A)
Type II restriction enzyme …: B6 Type II restriction enzyme … with E44A, N71Y
B19: EcoRV K92Q: EcoRV restriction enzyme with mutation K92Q (protein, UniProt P04390 2-245, looked up, variant K92Q)
Type II restriction enzyme …: B6 Type II restriction enzyme … with N71Y, K91Q
B20: EcoRV K92E: EcoRV restriction enzyme with mutation K92E (protein, UniProt P04390 2-245, looked up, variant K92E)
Type II restriction enzyme …: B6 Type II restriction enzyme … with N71Y, K91E
B21: EcoRV D74A: EcoRV restriction enzyme with mutation D74A (protein, UniProt P04390 2-245, looked up, variant D74A)
Type II restriction enzyme …: B6 Type II restriction enzyme … with N71Y, D73A
B22: EcoRV D90A: EcoRV restriction enzyme with mutation D90A (protein, UniProt P04390 2-245, looked up, variant D90A)
Type II restriction enzyme …: B6 Type II restriction enzyme … with N71Y, D89A
B23: BamHI T153I: BamHI restriction enzyme with mutation T153I (listed twice) (protein, UniProt P23940 1-213, looked up, variant T153I)
Type II restriction enzyme …: MEVEKEFITDEAKELLSKDKLIQQAYNEVKTSICSPIWPATSKTFTINNTEKNCNGVVPIKELCYTLLEDTYNWYREKPLDILKLEKKKGGPIDVYKEFIENSELKRVGMEFETGNISSAHRSMNKLLLGLKHGEIDLAIILMPIKQLAYYLIDRVTNFEELEPYFELTEGQPFIFIGFNAEAYNSNVPLIPKGSDGMSKRSIKKWKDKVENK
B24: BamHI E135K: BamHI restriction enzyme with mutation E135K (protein, UniProt P23940 1-213, looked up, variant E135K)
Type II restriction enzyme …: B23 Type II restriction enzyme … with E135K, I153T
B25: BamHI T157I: BamHI restriction enzyme with mutation T157I (protein, UniProt P23940 1-213, looked up, variant T157I)
Type II restriction enzyme …: B23 Type II restriction enzyme … with I153T, T157I
B26: BamHI G56S: BamHI restriction enzyme with mutation G56S (protein, UniProt P23940 1-213, looked up, variant G56S)
Type II restriction enzyme …: B23 Type II restriction enzyme … with G56S, I153T
B27: BamHI G194D: BamHI restriction enzyme with mutation G194D (protein, UniProt P23940 1-213, looked up, variant G194D)
Type II restriction enzyme …: B23 Type II restriction enzyme … with I153T, G194D
B28: BamHI T114I: BamHI restriction enzyme with mutation T114I (protein, UniProt P23940 1-213, looked up, variant T114I)
Type II restriction enzyme …: B23 Type II restriction enzyme … with T114I, I153T
B29: BamHI D94N: BamHI restriction enzyme with mutation D94N (protein, UniProt P23940 1-213, looked up, variant D94N)
Type II restriction enzyme …: B23 Type II restriction enzyme … with D94N, I153T
B30: BamHI G130R: BamHI restriction enzyme with mutation G130R (protein, UniProt P23940 1-213, looked up, variant G130R)
Type II restriction enzyme …: B23 Type II restriction enzyme … with G130R, I153T

System: nucleic acid recognition or cleavage site
Conditions: mutant restriction enzyme relative to wild type; cited from earlier work

Row | Molecule | % of WT cleavage activity
1 | B1 | <0.1%
2 | B2 | <0.1%
3 | B3 | <0.1%
4 | B4 | <0.1%
5 | B5 | <0.1%
6 | B6 | <0.1%
7 | B7 | <0.3%
8 | B8 | 0%
9 | B9 | 0%
10 | B10 | 0%
11 | B11 | <0.1%
12 | B12 | <0.1%
13 | B13 | 0%
14 | B14 | <0.1% and 1%
15 | B15 | <0.3%
16 | B16 | 0%
17 | B17 | 1.5%
18 | B18 | <0.1%
19 | B19 | 0%
20 | B20 | <0.1%
21 | B21 | 0%
22 | B22 | 0%
23 | B23 | 0.1% and 1%
24 | B24 | 1%
25 | B25 | 1%
26 | B26 | 1%
27 | B27 | 1%
28 | B28 | 1%
29 | B29 | <0.1%
30 | B30 | 0.1%
